Columns and labels:
FAS-IC = target: T1, FAS-IC (Homo sapiens, UniProt P25445); assay: Two-hybrid test (FIG. 1), binding of MORT-1 fragments to FAS-IC
T1 construct: the FAS-IC extends-from amino acid residues 175-319 of the intact FAS-R; expressed in transfected cells; host or cells: SFY526 yeast
T1 sequence (P25445 191-335): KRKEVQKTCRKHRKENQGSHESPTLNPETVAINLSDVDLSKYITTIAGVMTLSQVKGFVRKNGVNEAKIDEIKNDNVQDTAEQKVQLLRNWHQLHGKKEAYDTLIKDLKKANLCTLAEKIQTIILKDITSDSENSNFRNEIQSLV
Description: To isolate proteins interacting with the intracellular domain of the FAS-R, the yeast two-hybrid system was used (Fields and Song, 1989). […] In this system, the genes for the candidate interacting proteins are cloned into separate expression vectors. In one expression vector, the sequence of the one candidate protein is cloned in phase with the sequence of the GAL4 DNA-binding domain to generate a hybrid protein with the GAL4 DNA-binding-domain, and in the other vector, the sequence of the second candidate protein is cloned in phase with the sequence of the GAL4 activation domain to generate a hybrid protein with the GAL4-activation domain. The two hybrid vectors are then co-transformed into a yeast host strain having a lacZ or HIS3 reporter gene under the control of upstream GAL4 binding sites. Only those transformed host cells (cotransformants) in which the two hybrid proteins are expressed and are capable of interacting with each other, will be capable of expressing the reporter gene. In the case of the lacZ reporter gene, host cells expressing this gene will become blue in color when X-gal is added to the cultures. […]
In FIG. 1, there is depicted the interaction of the proteins encoded by the Gal4 DNA binding domain and activation-domain constructs (pGBT9 and pGAD-GH) within transfected SFY526 yeasts as assessed by β-galactosidase expression filter assay. […]

[1] = tested on: FAS-R mediated cell death in HeLa cells; assay: Anti-FAS-R antibody (CH-11) induced death of HeLa cells co-expressing FAS-R, neutral-red uptake; type: cell-based; conditions: co-expression with human FAS-R in HeLa HtTA-1; CH-11 antibody plus 10 μg/ml cycloheximide
Description: In another set of experiments to analyze the region of the MORT-1 protein involved in the binding to the FAS-IC, the following proteins were expressed transiently in HeLa cells that contain a tetracycline-controlled transactivator (HtTA-1), using a tetracycline-controlled expression vector (pUHD10-3): Human FAS-R alone; Human FAS-R as well as the N-terminal part of MORT-1 (amino acids 1-117, the “MORT-1 head”); Human FAS-R as well as the C-terminal part of MORT-1, which contains its ‘death domain’ homology region (amino acids 130-245, the “MORT-1 DD”); FLAG-55.11 (amino acids 309-900 of protein 55.11 fused at the N-terminus to the FLAG octapeptide, the protein 55.11 being a p55-IC-specific binding protein. Twelve hours after transfection, the cells were trypsinized and re-seeded at a concentration of 30,000 cells/well. After 24 hrs further incubation, the cells were treated for 6 hrs with a monoclonal antibody against the extracellular domain of FAS-R (monoclonal antibody CH-11, Oncor, Gaithersburg, Md., USA) at various concentrations (0.001-10 μg/ml monoclonal antibody), in the presence of 10 μg/ml cycloheximide. Cell viability was then determined by the neutral-red uptake assay and the results were presented in terms of % viable cells as compared to cells that had been incubated with cycloheximide alone (in the absence of anti-FAS-R monoclonal antibody CH-11). […]

MORT-1 = target: T2, MORT-1 (Homo sapiens, UniProt Q13158, G32V); assay: Two-hybrid test (FIG. 1), binding to full-length MORT-1; design: expressed in transfected cells; host or cells: SFY526 yeast
T2 sequence (Q13158 with tags, fused parts or gaps G32V): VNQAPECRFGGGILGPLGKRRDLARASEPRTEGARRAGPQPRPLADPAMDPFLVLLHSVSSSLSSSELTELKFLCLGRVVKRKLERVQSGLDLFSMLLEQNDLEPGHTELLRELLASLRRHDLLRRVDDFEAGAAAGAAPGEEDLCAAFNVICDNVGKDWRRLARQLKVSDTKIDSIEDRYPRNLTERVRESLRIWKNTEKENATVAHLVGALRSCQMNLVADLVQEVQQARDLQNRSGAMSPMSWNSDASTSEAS
Description: To isolate proteins interacting with the intracellular domain of the FAS-R, the yeast two-hybrid system was used (Fields and Song, 1989). […] In this system, the genes for the candidate interacting proteins are cloned into separate expression vectors. In one expression vector, the sequence of the one candidate protein is cloned in phase with the sequence of the GAL4 DNA-binding domain to generate a hybrid protein with the GAL4 DNA-binding-domain, and in the other vector, the sequence of the second candidate protein is cloned in phase with the sequence of the GAL4 activation domain to generate a hybrid protein with the GAL4-activation domain. The two hybrid vectors are then co-transformed into a yeast host strain having a lacZ or HIS3 reporter gene under the control of upstream GAL4 binding sites. Only those transformed host cells (cotransformants) in which the two hybrid proteins are expressed and are capable of interacting with each other, will be capable of expressing the reporter gene. In the case of the lacZ reporter gene, host cells expressing this gene will become blue in color when X-gal is added to the cultures.
(b) retransforming the plasmid DNA and original FAS-IC hybrid plasmid and control plasmids described in (a) into yeast host cells of strain SFY526 and determining the LACZ^+ activity (effectivity of β-gal formation, i.e., blue color formation).
In FIG. 1, there is depicted the interaction of the proteins encoded by the Gal4 DNA binding domain and activation-domain constructs (pGBT9 and pGAD-GH) within transfected SFY526 yeasts as assessed by β-galactosidase expression filter assay. The DNA-binding-domain constructs included four constructs of the human Fas-IC, four constructs of the mouse Fas-IC including two full-length constructs having […] or Ile to Ala replacement mutations at position 225 (I225N and I225A, respectively), and three MORT-1 constructs, all of which are shown schematically on the left hand side of FIG. 1. […]

[2] = tested on: human embryonic kidney 293-EBNA cells; assay: Cell death on overexpression of MACH isoforms in 293-EBNA cells; type: cell-based; conditions: β-galactosidase-expressing cells with apoptopic morphology, 20 h after transfection
Method: To explore the involvement of MACH in cell-death induction, the effect of overexpression of various MACH isoforms on cell viability was examined. The test was performed by transfecting MACH expression vectors together with a β-galactosidase expression vector as a transfection marker into human embryonic kidney 293-EBNA cells and breast carcinoma MCF7 cells.
(§1) In brief, 293-EBNA cells, MCF7 human breast carcinoma cells and HeLa HtTA-1 cells were grown in Dulbecco's modified Eagle's minimal essential medium supplemented with 10% fetal calf serum, nonessential amino acids, 100 U/ml penicillin and 100 μg/ml streptomycin. Cell tissue culture dishes (5×10^5 293-EBNA cells, 3×10^5 s MCF7 cells or 3×10^5 HeLa cells in 6-cm dishes) were transiently transfected, using the calcium phosphate precipitation method, with the cDNAs of the indicated proteins together with the β-galactosidase expression vector. In the experiments presented in FIGS. 14A-D and 15, each dish was transfected with 3.5 μg of the indicated MACH construct and 1.5 μg of pSV-β-gal. In the experiments presented in FIGS. 16A-D and 17-19, each dish was transfected with 2.5 μg of the indicated MACH or MORT1 construct (or, as control, empty vector) and 1.5 μg of pSV-β-gal. The cells were rinsed 6 to 10 h after transfection. The 293-EBNA and MCF7 cells were incubated for a further 18 h without additional treatment. The HeLa cells were incubated for 26 h after transfection and-then for 5 h in the presence of either anti-Fas.APO1 antibody (CH11, 0.5 μg/ml) or TNF (100 ng/ml), together with cycloheximide (10 μg/ml). The extent of cell death at the end of the incubation periods was assessed by determination of β-galactosidase expression, as described by Kumar et al, 1994.
In particular, FIGS. 14A-D show the morphology of human embryonic kidney 293-EBNA cells transiently expressing the indicated MACH isoforms. The arrows (FIG. 14B) point to apoptopic cells. Photographs were taken 26 h after transfection. […] Data are from three independent experiments with the 293-EBNA cells and two independent experiments with the MCF7 cells.

[3] = tested on: Fas/APO1 cytotoxicity (p55-Fas chimera) in 293-EBNA cells; type: cell-based, human; conditions: co-transfection
Method: as §1, with “The HeLa cells were incubated for 26 h after transfection and-then for 5 h in the presence of either anti-Fas.APO1 antibody (CH11, 0.5 μg/ml) or TNF (100 ng/ml), together with cycloheximide (10 μg/ml).” left out, “1994. […]” for “1994.”
(§2) In particular, FIGS. 16A-D show morphology of 293-EBNA cells in which cell death was induced by transient expression of a chimera comprised of the extracellular domain of the p55-R (amino acids 1-168) fused to the transmembrane and intracellular domains of Fas/APO1 (amino acids 153-319) (p55-Fas chimera) (FIGS. 16A and 16B), or by expression of the p55-R (FIGS. 16C and 16D), and of cells that were protected from these cytotoxic effects by their simultaneous transfection with MACHα1 (C360S) (FIGS. 16B and 16D). […] FIG. 17 illustrates the quantification of death induced in 293-EBNA cells by their transfection with p55-Fas chimera or with p55-R, together with an empty vector, a MORT1 deletion mutant lacking the MACH-binding region (MORT1 (92-208)), or MACHα molecules containing a nonfunctional CED3/ICE region. […] Data are from at least two independent experiments and are expressed as in FIGS. 14A-F and 15.

[4] = tested on: p55-R-induced cytotoxicity in 293-EBNA cells; assay: Death of 293-EBNA cells induced by over-expression of p55-R; type: cell-based, human; conditions: co-transfection
Method: as §1, with “The HeLa cells were incubated for 26 h after transfection and-then for 5 h in the presence of either anti-Fas.APO1 antibody (CH11, 0.5 μg/ml) or TNF (100 ng/ml), together with cycloheximide (10 μg/ml).” left out, “1994. […]” for “1994.”
as §2

[5] = tested on: Fas/APO1-induced death of HeLa cells; assay: Death of HeLa cells expressing Fas/APO1 induced by anti-Fas/APO1 antibody and cycloheximide; type: cell-based, human; conditions: HeLa cells transiently expressing Fas/APO1, CH11 0.5 μg/ml, cycloheximide 10 μg/ml
Method: as §1
The HeLa cells were made responsive to Fas/APO1 by transient expression of this receptor. […] These protective effects indicate that MACHα is a necessary component of both the Fas/APO1- and the p55-R-induced signaling cascades for cell death.
In particular, FIGS. 16A-D show morphology of 293-EBNA cells in which cell death was induced by transient expression of a chimera comprised of the extracellular domain of the p55-R (amino acids 1-168) fused to the transmembrane and intracellular domains of Fas/APO1 (amino acids 153-319) (p55-Fas chimera) (FIGS. 16A and 16B), or by expression of the p55-R (FIGS. 16C and 16D), and of cells that were protected from these cytotoxic effects by their simultaneous transfection with MACHα1 (C360S) (FIGS. 16B and 16D). Photographs were taken 26 h after transfection. FIG. 17 illustrates the quantification of death induced in 293-EBNA cells by their transfection with p55-Fas chimera or with p55-R, together with an empty vector, a MORT1 deletion mutant lacking the MACH-binding region (MORT1 (92-208)), or MACHα molecules containing a nonfunctional CED3/ICE region. […] Data are from at least two independent experiments and are expressed as in FIGS. 14A-F and 15.

[6] = tested on: TNF-induced death of HeLa cells; assay: Death of HeLa cells induced by TNF and cycloheximide; type: cell-based, human; conditions: TNF 100 ng/ml, cycloheximide 10 μg/ml
Method: as §1, with “1994. […]” for “1994.”

B1: fragment corresponding to residues 130-245: C-terminal part of MORT-1 containing its death domain homology region, amino acids 130-245 (protein)
chain: FEAGAAAGAAPGEEDLCAAFNVICDNVGKDWRRLARQLKVSDTKIDSIEDRYPRNLTERVRESLRIWKNTEKENATVAHLVGALRSCQMNLVADLVQEVQQARDLQNRSGAMSPMS
In the case of B1, the “binding to FAS-IC / FAS-R in two-hybrid test” value (FAS-IC) is reported as “binds”, the “effect on FAS-induced (FAS-R mediated) cell death” value [1] is reported as “strongly interferes” and the “binding to full-length MORT-1 in two-hybrid test” value (MORT-1) is reported as “does not bind”.

B2: MACHα2: MACH isoform, cDNA SEQ ID NO: 17, amino acid SEQ ID NO: 18 (protein)
chain: MDFSRNLYDIGEQLDSEDLASLKFLSLDYIPQRKQEPIKDALMLFQRLQEKRMLEESNLSFLKELLFRINRLDLLITYLNTRKEEMERELQTPGRAQISAYRVMLYQISEEVSRSELRSFKFLLQEEISKCKLDDDMNLLDIFIEMEKRVILGEGKLDILKRVCAQINKSLLKIINDYEEFSKGEELCGVMTISDSPREQDSESQTLDKVYQMKSKPRGYCLIINNHNFAKAREKVPKLHSIRDRNGTHLDAGALTTTFEELHFEIKPHDDCTVEQIYEILKIYQLMDHSNMDCFICCILSHGDKGIIYGTDGQEAPIYELTSQFTGLKCPSLAGKPKVFFIQACQGDNYQKGIPVETDSEEQPYLEMDLSSPQTRYIPDEADFLLGMATVNNCVSYRNPAEGTWYIQSLCQSLRERCPRGDDILTILTEVNYEVSNKDDKKNMGKQMPQPTFTLRKKLVFPSD
In the case of B2, the “cell death of transfected 293-EBNA cells” value [2] is reported as “massive cell death”.

B3: MORT1 (92-208) (protein, UniProt Q13158 92-208, looked up, fragment)
chain: PGEEDLCAAFNVICDNVGKDWRRLARQLKVSDTKIDSIEDRYPRNLTERVRESLRIWKNTEKENATVAHLVGALRSCQMNLVADLVQEVQQARDLQNRSGAMSPMSWNSDASTSEAS
With B3 the “protection against Fas/APO1 cytotoxicity (p55-Fas chimera)” value [3] was “protection was also observed”, the “protection against p55-R-induced cytotoxicity” value [4] was “protection was also observed” and the “protection against death induced by anti-Fas/APO1 antibody and cycloheximide” value [5] was “protection was also observed”. The “protection against death induced by anti-Fas/APO1 antibody and cycloheximide” value ([5]; listed as MORT1DD (92-208)) was “prevention” and the “protection against death induced by TNF and cycloheximide” value [6] was “protection was also observed”.

Reference: patent publication US7799901B2, “Modulators of the function of FAS receptors and other proteins” (Yeda Research and Development Co. Ltd., priority 1995, dated 2010)
